According to patent publication US20230039401A1, “COMPOSITIONS AND METHODS FOR TREATING NRP2-ASSOCIATED DISEASES” (aTyr Pharma, Inc., priority 2018, published 2023):
“Also recorded” adds a separate entry of the source.

Columns and labels:
NRP2 [1] = target: T1, NRP2 (Homo sapiens, UniProt O60462); assay: SPR protein-protein interaction, human NRP2 over immobilized protein; assay type: binding; settings: NRP2 flowed as analyte (50 nM or 20 nM); running buffer with 5 mM CaCl2
T1 construct: Fc (C); purchased R&D Systems 2215-N2
Protocol: (§1) Protein-Protein Interaction studies. […] SPR experiments were conducted on a Bio-Rad ProteOn XPR36 Protein Interaction Array instrument. Proteins were immobilized on different channels of ProteOn GLC sensor chips through amine coupling. Analyte proteins were flowed over the immobilized proteins. The sensor chip surface was regenerated between each analyte run to remove interacting proteins. Data was double referenced against an interspot (untreated chip surface) and a blank surface (activated and deactivated for amine coupling).
(§2) Studies were performed to confirm the binding specificity of Neuropilin 2 (NRP2) to Fc-HRS(2-60) using orthologous methods to those used in the large scale Retrogenix screening (Example 1). In a series of experiments, Fc-HRS(2-60) and related proteins were immobilized on SPR chips, and NRP2 and related proteins were flowed as analytes. Upon confirmation of the NRP2:Fc-HRS(2-60) interaction, the dependence on divalent cations was tested as NRP2 is known to have Ca^2+ binding sites. The effects of previously characterized NRP2 ligands on the NRP2: Fc-HRS(2-60) interaction was also tested to determine if these known ligands have competitive effects on the Fc-HRS(2-60) interaction.

mouse NRP2 = target: T2, mouse NRP2 (Mus musculus, UniProt O35375); assay: SPR protein-protein interaction, mouse NRP2 over immobilized protein; assay type: binding; settings: 50 nM mouse NRP2 as analyte
T2 construct: Fc (C); purchased R&D Systems 7988-N2
Protocol: as §1, §2

rat NRP2 = target: T3, rat NRP2 (Rattus norvegicus, UniProt O35276); assay: SPR protein-protein interaction, rat NRP2 over immobilized protein; assay type: binding; settings: 50 nM rat NRP2 as analyte
T3 construct: Fc (C); His (C); purchased R&D Systems 567-N2
T3 sequence (O35276 23-925): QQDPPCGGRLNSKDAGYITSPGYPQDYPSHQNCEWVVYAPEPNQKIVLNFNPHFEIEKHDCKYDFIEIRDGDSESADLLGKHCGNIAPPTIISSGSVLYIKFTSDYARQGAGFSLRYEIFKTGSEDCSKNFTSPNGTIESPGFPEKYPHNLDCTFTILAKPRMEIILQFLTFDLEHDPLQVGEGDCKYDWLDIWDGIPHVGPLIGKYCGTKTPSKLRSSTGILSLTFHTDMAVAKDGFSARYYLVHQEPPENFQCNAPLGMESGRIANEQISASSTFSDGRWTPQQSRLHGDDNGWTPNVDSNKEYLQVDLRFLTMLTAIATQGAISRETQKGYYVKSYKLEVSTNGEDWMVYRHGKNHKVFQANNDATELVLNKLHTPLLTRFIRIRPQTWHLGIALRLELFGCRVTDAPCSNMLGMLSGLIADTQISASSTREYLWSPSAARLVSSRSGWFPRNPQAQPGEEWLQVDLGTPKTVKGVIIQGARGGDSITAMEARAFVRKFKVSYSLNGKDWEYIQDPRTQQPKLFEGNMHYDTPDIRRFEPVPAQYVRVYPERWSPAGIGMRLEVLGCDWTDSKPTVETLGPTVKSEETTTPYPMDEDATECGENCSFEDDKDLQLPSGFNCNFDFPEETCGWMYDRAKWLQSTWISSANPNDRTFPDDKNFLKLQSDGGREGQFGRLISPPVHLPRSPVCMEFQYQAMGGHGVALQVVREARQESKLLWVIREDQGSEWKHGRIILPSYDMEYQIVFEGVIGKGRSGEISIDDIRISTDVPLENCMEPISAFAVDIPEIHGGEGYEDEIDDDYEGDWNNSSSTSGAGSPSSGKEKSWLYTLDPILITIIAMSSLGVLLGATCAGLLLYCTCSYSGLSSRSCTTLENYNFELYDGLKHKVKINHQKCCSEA
Protocol: as §1, §2

[2] = target: T4, cell-expressed NRP2 (NRP2a-GFP fusion protein on HEK293T cells) (Homo sapiens, UniProt O60462); assay: Immunofluorescence binding of Fc-HRS (2-60) to HEK293T cells overexpressing NRP2v2-GFP; settings: HEK293T cells overexpressing NRP2v2-GFP, GFP Bright cells
T4 construct: host or cells: HEK293T
Protocol: Reagents: • PE anti-human IgG Fc Antibody, clone HP6017, Biolegend cat 409304 • Mouse Anti-HRS monoclonal antibody (1-96) Clone 1C8, Abnova cat H00003035-M01 • Mouse IgG2a, Isotype control antibody (MOPC-173), Biolegend cat 400223 • Recombinant Human VEGF-C Protein, R&D Systems, cat 2179-VC-025/CF • Formaldehyde, 16%, methanol free, Ultra Pure, Polysciences, cat 18814-10 • Hoechst 33342, Trihydrochloride, Trihydrate, ThermoFisher Scientific, cat H1399 • Fc-HRS (2-60) was prepared as described in PCT application PCT/US2014/029699 • Gibco DMEM, High Glucose, ThermoFisher Scientific, cat 11965092 • PolyJet™ In Vitro DNA Transfection Reagent, SignaGen, cat SL100688 • Neuropilin 2 (NRP2) (NM_003872) Human ORF Clone, Origene, cat RG220706 • Collagen Coating Solution, Cell Applications Cat 125-100 • 1×PBS containing 1% BSA, 0.9 mM CaCl2 and 20 mM glucose • Binding buffer containing 1% normal mouse IgG (sigma cat 18765) and 2.5% (Human Fc Receptor Binding Inhibitor, ebioscience 14-9161-73).
Cell culture and transfection. […]
Immunofluorescence assays on cultured cells. Binding and quantitation of Fc-HRS (2-60) to cell-expressed NRP2 was achieved using immunofluorescence microscopy. […] The Hoechst stain was replaced with 1×PBS and subsequently read on an IN Cell Analyzer 2200. 20× images were acquired and analyzed using In Cell Analyzer 1000 Workstation software. […]

[3] = target: T5, NRP2:Fc-HRS(2-60) interaction (Homo sapiens, UniProt O60462); assay: SPR competition of known NRP2 ligands with the NRP2:Fc-HRS(2-60) interaction; assay type: binding
T5 construct: Fc (C); purchased R&D Systems 2215-N2
Protocol: as §1, §2
(§3) A subset of the known ligands of NRP2 appears to compete binding of Fc-HRS(2-60) to NRP2.

NRP2 [4] = target: T1, NRP2; assay: SPR binding of known ligands to NRP2; settings: known NRP2 ligands
Protocol: as §1, §3

T2 sequence (O35375 21-931): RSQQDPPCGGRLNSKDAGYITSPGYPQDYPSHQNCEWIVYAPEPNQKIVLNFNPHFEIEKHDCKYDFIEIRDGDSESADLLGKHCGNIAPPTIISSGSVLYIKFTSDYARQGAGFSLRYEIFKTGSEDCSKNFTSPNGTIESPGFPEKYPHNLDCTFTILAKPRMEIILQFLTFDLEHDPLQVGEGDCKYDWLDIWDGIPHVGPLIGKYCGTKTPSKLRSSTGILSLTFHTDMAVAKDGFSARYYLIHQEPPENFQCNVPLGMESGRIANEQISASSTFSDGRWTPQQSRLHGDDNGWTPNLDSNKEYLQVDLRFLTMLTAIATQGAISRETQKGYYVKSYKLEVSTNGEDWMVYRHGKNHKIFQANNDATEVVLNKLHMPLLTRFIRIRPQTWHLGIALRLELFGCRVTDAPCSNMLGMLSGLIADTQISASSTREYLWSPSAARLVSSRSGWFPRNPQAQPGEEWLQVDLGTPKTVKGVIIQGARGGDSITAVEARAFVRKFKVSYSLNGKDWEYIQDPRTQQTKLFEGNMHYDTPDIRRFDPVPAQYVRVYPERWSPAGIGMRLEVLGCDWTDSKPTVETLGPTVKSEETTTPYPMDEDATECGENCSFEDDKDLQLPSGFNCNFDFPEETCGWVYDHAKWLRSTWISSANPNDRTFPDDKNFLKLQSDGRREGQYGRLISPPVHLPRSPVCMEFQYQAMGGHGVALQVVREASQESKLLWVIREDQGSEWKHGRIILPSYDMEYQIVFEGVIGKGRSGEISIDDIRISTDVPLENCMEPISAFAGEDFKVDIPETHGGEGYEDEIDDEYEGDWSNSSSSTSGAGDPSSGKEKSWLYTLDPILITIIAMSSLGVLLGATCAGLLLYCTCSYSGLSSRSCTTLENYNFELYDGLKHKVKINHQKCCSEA

| binding to cell-expressed NRP2a (staining intensity of anti-Fc-PE complex) [2] | effect of ligand on binding of NRP2 to Fc-HRS(2-60) (SPR) ([3]; NRP2 in the presence of the ligand over immobilized Fc-HRS(2-60)) | Competes with Fc-HRS(2-60) for NRP2 binding ([3]; SPR, NRP2 binding to immobilized Fc-HRS(2-60) in presence of ligand) | Binding to NRP2 observed by SPR (NRP2 [4]) | Substance | binding of human NRP2 to immobilized protein (SPR) (NRP2 [1]) | binding of mouse NRP2 to immobilized protein (SPR) (mouse NRP2) | binding of rat NRP2 to immobilized protein (SPR) (rat NRP2) |
| --- | --- | --- | --- | --- | --- | --- | --- |
| negligible specific binding | – | – | – | Fc-HRS(2-11): truncated form of Fc-HRS(2-60) with a 49 amino acid deletion at the C-terminus, deleting the majority of the WHEP domain | not a truncated form of Fc-HRS(2-11); also recorded: none of these NRP2 forms bind | not a truncated form of Fc-HRS(2-11); also recorded: none of these NRP2 forms bind | not a truncated form of Fc-HRS(2-11); also recorded: none of these NRP2 forms bind |
| – | reduced or ablated | Yes | Yes | VEGF-A165: commercial protein (Peprotech #100-20) [reference compound] | – | – | – |
